Results taken from WO2021237516A1 (dated 2021).

B1: Ab2001.08 (antibody, V domains shown)
VH: QVQLVQSGAEVKKPGSSVKVSCKASGGTFSSYAISWVRQAPGQGLEWMGRIIPIFGTANYAQKFQGRVTITADESTSTAYMELSSLRSEDTAVYYCASLASYSSGWEDVFDIWGQGTMVTVSS
VL: DIQMTQSPSSLSASVGDRVTITCRASQGISSWLAWYQQKPGKAPKLLIYDASNLETGVPSRFSGSGSGTDFTFTISSLQPEDIATYYCQQYDNLPLTFGGGTKVEIK
B2: Ab2001.10 (antibody, V domains shown)
VH: QVQLVQSGAEVKKPGASVKVSCKASGDTFSSFDINWVRQATGQGLEWMGWMHAGSGNAGYAQKFQGRVTMTRDTSISTAYMELSSLRSEDTAVYYCANYVPHGAFQIWGQGTMVTVSS
VL: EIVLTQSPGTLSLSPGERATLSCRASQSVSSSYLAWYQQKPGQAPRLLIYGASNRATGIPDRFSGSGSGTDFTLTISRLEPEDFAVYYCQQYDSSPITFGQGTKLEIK
B3: Ab2001.16 (bispecific antibody, V domains shown)
VH 1: EVQLVESGGGLVQPGGSLRLSCAASGFSFSNSDMHWVRQATGKGLEWVSAIGDSGDTYYSDSVKGRFTISRENAKSSLYLQMNSLRAEDTAVYYCARAANWGWDWYFDLWGRGTLVTVSS
VH 2: EVQLVETGGGLIQPGGSLRLSCAASGFTVSSNYMSWVRQAPGKGLEWVSVIYSGGSTYYADSVKGRFTISRDNSKNTLYLQMNSLRAEDTAVYYCARDAGPYGMDVWGQGTTVTVSS
VL: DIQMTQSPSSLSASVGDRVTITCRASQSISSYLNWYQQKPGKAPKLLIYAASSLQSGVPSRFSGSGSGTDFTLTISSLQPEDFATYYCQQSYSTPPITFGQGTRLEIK
B4: Ab2001.11 (antibody, V domains shown)
VH: B3 VH 1
VL: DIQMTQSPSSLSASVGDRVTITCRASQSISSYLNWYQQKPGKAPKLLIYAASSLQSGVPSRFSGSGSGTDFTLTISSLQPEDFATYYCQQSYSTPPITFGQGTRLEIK

Assays:
[1] = molecular target: SARS-CoV-2 S1 (SARS-CoV-2, UniProt P0DTC2 16-685)
[2] = molecular target: SARS-CoV S1 (SARS-CoV, UniProt P59594 14-667); experiment: competition ELISA as in Example 3.2: blocking of SARS-CoV S1 binding to hACE2

Binder	Kd [1] [nM]	IC50 [2] [nM]
B1	2.93	–
B2	4.21	–
B3	2.39	–
B4	–	304
